Results published in patent publication US11578136B2, “Compositions and methods for treating cancer” (INNATE PHARMA, priority 2017, dated 2023).

How the values were obtained:
[1] = biological target: T1, CHO cells expressing human CD39 (Homo sapiens, UniProt P49961); assay: Antibody titration on CHO-huCD39 by flow cytometry; type: binding; details: result in words
T1 construct: expressed in transfected cells; host or cells: CHO cells
T1 sequence (P49961 1-510): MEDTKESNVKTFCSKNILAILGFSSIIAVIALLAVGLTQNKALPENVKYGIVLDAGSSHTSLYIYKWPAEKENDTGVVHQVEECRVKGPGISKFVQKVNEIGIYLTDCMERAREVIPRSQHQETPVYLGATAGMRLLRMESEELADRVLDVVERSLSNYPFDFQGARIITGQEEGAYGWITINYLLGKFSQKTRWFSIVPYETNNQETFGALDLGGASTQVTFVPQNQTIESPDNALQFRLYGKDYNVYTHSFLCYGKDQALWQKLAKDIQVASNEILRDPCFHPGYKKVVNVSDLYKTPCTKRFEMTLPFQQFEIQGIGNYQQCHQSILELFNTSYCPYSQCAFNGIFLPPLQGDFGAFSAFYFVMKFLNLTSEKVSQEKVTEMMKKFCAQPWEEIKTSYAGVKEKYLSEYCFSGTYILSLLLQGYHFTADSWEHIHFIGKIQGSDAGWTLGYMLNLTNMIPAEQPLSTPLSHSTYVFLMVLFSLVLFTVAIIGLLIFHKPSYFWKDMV
Method: Antibody I-394 was tested in two repeated experiments for binding to CHO cells expressing human CD39, CHO cells expressing cynomolgus (Macaca fascicularis) CD39, CHO cells expressing murine CD39, and human Ramos lymphoma cells (ATCC™, reference CRL-1596). Cells were incubated with various concentration of unlabeled anti-CD39 antibody from 30 μg/ml to 5×10^−4 μg/ml, for 30 minutes at 4° C. After washes, cells were incubated with Goat anti-mouse H+L labeled secondary antibody for 30 min at 4° C.

cell-membrane bound CD39 = biological target: T2, cell-membrane bound CD39 (Homo sapiens, UniProt P49961); assay: Inhibition of the enzymatic activity of cellular CD39 (cells not specified); type: cell-based
T2 sequence (P49961 1-510): T1 sequence (P49961 1-510)
Method: (§1) The inhibition of the CD39 enzymatic activity in CD39-expressing cells by antibodies was evaluated using Cell Titer Glo™ (Promega, reference G7571) that allows assessment of ATP hydrolysis through use of a reagent that generates a luminescent signal proportional to the amount of ATP present. The assay was thus designed to permit assessment of the inhibition of ATP hydrolyzed by CD39 in the cell culture supernatant. Briefly, 5×10^4 Ramos human lymphoma cells, 5×10^3 human CD39-, cynomolgus CD39- and mouse CD39-expressing CHO cells, were incubated 1 hour at 37° C. with anti-CD39 antibodies from 30 μg/ml to […]. Cells were then incubated with 20 μM ATP for 1 additional hour at 37° C. Plates were centrifuged for 2 min at 400 g and 50 μl cell supernatant are transferred in a luminescence microplate (white wells). 50 μl CellTiter-Glo® Reagent (CTG) was added to the supernatant and emitted light was quantified after a 5 min incubation in the dark using a Enspire™ luminometer. Anti-CD39 antibody efficacy was determined by comparing emitted light in presence of antibody with ATP alone (maximal light emission) and ATP together with cells (minimal light emission).
The two antibodies that have been reported to inhibit the ATPase activity of CD39 in cellular assays (BY40 and BY12) were assessed to determine whether are able to inhibit the ATPase activity of recombinant soluble CD39 protein. […]

[2] = biological target: T3, CD39 expressed by Ramos human lymphoma cells (Homo sapiens, UniProt P49961); assay: Inhibition of the enzymatic activity of cellular CD39 in Ramos cells (Cell Titer Glo); type: cell-based
T3 construct: host or cells: Ramos human lymphoma cells
T3 sequence (P49961 1-510): T1 sequence (P49961 1-510)
Method: as §1
(§2) The inhibition by antibody I-394 of the ATPase activity of CD39 in CD39-expressing cells was evaluated using the assay used for inhibition of the enzymatic activity of cellular CD39 as described above (Methods).

[3] = biological target: T4, Human CD39-L3 (NTPDase3, ENTPD3) (Homo sapiens, UniProt O75355); assay: ELISA titration on CD39-L3; type: binding; details: result in words
T4 sequence (O75355 1-529): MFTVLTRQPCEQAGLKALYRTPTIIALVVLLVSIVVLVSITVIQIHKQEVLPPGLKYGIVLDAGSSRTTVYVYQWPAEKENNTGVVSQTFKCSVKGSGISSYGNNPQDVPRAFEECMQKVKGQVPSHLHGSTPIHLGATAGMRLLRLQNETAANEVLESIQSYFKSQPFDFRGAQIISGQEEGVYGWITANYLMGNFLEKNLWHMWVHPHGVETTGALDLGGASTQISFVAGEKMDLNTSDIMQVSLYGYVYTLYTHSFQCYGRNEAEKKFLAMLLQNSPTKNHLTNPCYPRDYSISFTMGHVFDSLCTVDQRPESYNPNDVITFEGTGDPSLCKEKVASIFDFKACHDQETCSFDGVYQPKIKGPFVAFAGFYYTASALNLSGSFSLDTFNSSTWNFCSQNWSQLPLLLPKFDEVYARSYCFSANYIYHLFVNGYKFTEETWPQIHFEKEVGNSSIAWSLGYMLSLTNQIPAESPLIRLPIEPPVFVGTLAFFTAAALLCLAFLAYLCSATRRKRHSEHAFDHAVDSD
Method: Antibody I-394 was tested for binding to recombinant human CD39 isoforms (Rec-huCD39 isoforms) having amino acid sequences shown below were coated in 96-well plate in PBS 1× at 500 ng/ml or 1 μg/ml at 4° C. overnight. Wells were washed in TBS Tween 20, and further saturated 2H at RT in TBS Blocking buffer. Dose range concentration of primary antibody was incubated in TBS blocking buffer for 2 h at RT. Wells were washed in TBS Tween 20. […] Optical density was measured on Enspire™ at OD=450.

[4] = biological target: T5, human CD39-expressing CHO cells (CHO-huCD39) (Homo sapiens, UniProt P49961); assay: Inhibition of the enzymatic activity of cellular CD39 in CHO-huCD39; type: cell-based; details: result in words
T5 construct: expressed in transfected cells; host or cells: CHO cells
T5 sequence (P49961 1-510): T1 sequence (P49961 1-510)
Method: as §1, §2

- binding to cells expressing human CD39 (CHO-huCD39) [1]: bound
- potency and maximal inhibition of cellular CD39 compared to BY40 (FIG. 2A) (cell-membrane bound CD39; compared to BY40): greater potency and maximal inhibition
- inhibition of ATPase activity of CD39 protein in cells / cell-membrane bound CD39 (cell-membrane bound CD39; result in words): inhibit
- potency at blocking CD39 in Ramos cells compared to all other antibodies tested [2]: greater potency
- maximum inhibition achieved, cellular CD39 ([2]; Ramos cells): 81.6%
- blocking CD39 enzymatic activity in tumor (Ramos) cells ([2]; result in words): highly potent
- binding to CD39-L3 in ELISA [3]: not
Substance: I-394: anti-CD39 antibody, VH SEQ ID NO: 6, VL SEQ ID NO: 7; human IgG1 Fc with L234A/L235E/G237A/A330S/P331S
- blocking CD39 enzymatic activity in CHO-huCD39 [4]: blocks
